Measured values from the supplement of paper PMC7877785.
± gives the uncertainty stated by the source.

Assay: self-splicing fitness, log relative to wild type (ln ratio); higher = more splicing; Tetrahymena group I intron in knt gene, E. coli kanamycin selection, DiMSum; sequences stand for … in CUCUCU…GGAGGGAAAAGUUAUCAGGCAUGCACCUGGUAGCUAGUCUUUAAACCAAUAGAUUGCAUCGGUUUAAAAGGCAAGACCGUCAAAUUGCGGGAAAGGGGUCAACAGCCGUUCAGUACCAAGUCUCAGGGGAAACUUUGAGAUGGCCUUGCAAAGGGUAUGGUAAUAAGCUGACGGACAUGGUCCUAACCACGCAGCCAAGUCCUAAGUCAACAGAUCUUCUGUUGAUAUGGAUGCAGUUCACAGACUAAAUGUCGGUCGGGGAAGAUGUAUUCUUCUCAUAAGAUAUAGUCGGACCUCUCCUUAAUGGGAGCUAGCGGAUGAAGUGAUGCAACACUGGAGCCGCUGGGAACUAAUUUGUAUGCGAAAGUAUAUUGAUUAGUUUUGGAGUACUCGUGGUCG
How it was run: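 Fitness was computed with DiMSum as the error-weighted combination of replicate fold changes, kanamycin versus none, each normalised to wild type. The library randomised all eight intron nucleotides of the P1ex region, with the intron placed in the knt kanamycin-resistance gene on pET-22b(+) in E. coli BL21(DE3). Six replicate transformations were grown overnight at 37°C or 30°C on LB agar with or without 25 μg/mL kanamycin, plus 100 μg/mL carbenicillin, 50 μM IPTG and 0.2% rhamnose. Pooled colonies were amplicon-sequenced on an Illumina HiSeq 2500.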

For AGCAAGCAAUAUUACGUCAU, the “self-splicing fitness (ln)” value (30 °C) was -1.5 ± 0.078 and the “self-splicing fitness (ln)” value (37 °C) was -1.23 ± 0.084.

For UCCCAGCAAUAUUACGGCUC, the “self-splicing fitness (ln)” value (30 °C) was -2.83 ± 0.14 and the “self-splicing fitness (ln)” value (37 °C) was -2.31 ± 0.24.

In the case of CGGAAGCAAUAUUACGGUGG, the “self-splicing fitness (ln)” value (30 °C) is reported as -0.759 ± 0.099 and the “self-splicing fitness (ln)” value (37 °C) is reported as -0.586 ± 0.1.

For AUACAGCAAUAUUACGCGAG, the “self-splicing fitness (ln)” value (30 °C) was -2.35 ± 0.097 and the “self-splicing fitness (ln)” value (37 °C) was -0.829 ± 0.1.

In the case of GACGAGCAAUAUUACGAGCU, the “self-splicing fitness (ln)” value (30 °C) is reported as -3.27 ± 0.31.

For GCAAAGCAAUAUUACGCUCG, the “self-splicing fitness (ln)” value (30 °C) was -0.748 ± 0.17 and the “self-splicing fitness (ln)” value (37 °C) was -0.86 ± 0.24.

For UGCAAGCAAUAUUACGGAGA, the “self-splicing fitness (ln)” value (30 °C) was -2.45 ± 0.21 and the “self-splicing fitness (ln)” value (37 °C) was -3.01 ± 0.29.

In the case of CAGGAGCAAUAUUACGCAGC, the “self-splicing fitness (ln)” value (30 °C) is reported as -2.14 ± 0.18 and the “self-splicing fitness (ln)” value (37 °C) is reported as -2.55 ± 0.33.

With UGGCAGCAAUAUUACGCGCA the “self-splicing fitness (ln)” value (30 °C) was -0.259 ± 0.14 and the “self-splicing fitness (ln)” value (37 °C) was 0.284 ± 0.15.

In the case of UUGAAGCAAUAUUACGUGCC, the “self-splicing fitness (ln)” value (30 °C) is reported as -2.27 ± 0.15 and the “self-splicing fitness (ln)” value (37 °C) is reported as -0.402 ± 0.16.

With AAAAAGCAAUAUUACGCGUU the “self-splicing fitness (ln)” value (30 °C) was -2.73 ± 0.11 and the “self-splicing fitness (ln)” value (37 °C) was -1.44 ± 0.11.

For UUUGAGCAAUAUUACGUAUA, the “self-splicing fitness (ln)” value (30 °C) was -2.78 ± 0.3 and the “self-splicing fitness (ln)” value (37 °C) was -2.67 ± 0.36.

For UAAGAGCAAUAUUACGUUCU, the “self-splicing fitness (ln)” value (30 °C) was -3.45 ± 0.28 and the “self-splicing fitness (ln)” value (37 °C) was -1.55 ± 0.19.

For AGGUAGCAAUAUUACGUCCU, the “self-splicing fitness (ln)” value (30 °C) was -3.01 ± 0.027 and the “self-splicing fitness (ln)” value (37 °C) was -2.01 ± 0.041.

With CGGUAGCAAUAUUACGAAGU the “self-splicing fitness (ln)” value (30 °C) was -2.86 ± 0.3 and the “self-splicing fitness (ln)” value (37 °C) was -1.85 ± 0.25.

With CGUUAGCAAUAUUACGUGCC the “self-splicing fitness (ln)” value (30 °C) was -2.8 ± 0.31 and the “self-splicing fitness (ln)” value (37 °C) was -1.59 ± 0.29.

For GAUGAGCAAUAUUACGUCGC, the “self-splicing fitness (ln)” value (30 °C) was -4.14 ± 0.29 and the “self-splicing fitness (ln)” value (37 °C) was -2.7 ± 0.26.

With GUAAAGCAAUAUUACGAUAC the “self-splicing fitness (ln)” value (30 °C) was -0.815 ± 0.14 and the “self-splicing fitness (ln)” value (37 °C) was -0.547 ± 0.16.

In the case of UGAUAGCAAUAUUACGUACC, the “self-splicing fitness (ln)” value (30 °C) is reported as -1.76 ± 0.2 and the “self-splicing fitness (ln)” value (37 °C) is reported as -1.6 ± 0.26.

For ACCAAGCAAUAUUACGCUAA, the “self-splicing fitness (ln)” value (30 °C) was -3.3 ± 0.16 and the “self-splicing fitness (ln)” value (37 °C) was -2.33 ± 0.14.

For GCCGAGCAAUAUUACGAGCA, the “self-splicing fitness (ln)” value (30 °C) was -1.93 ± 0.11 and the “self-splicing fitness (ln)” value (37 °C) was -0.944 ± 0.11.

With CCACAGCAAUAUUACGAUUC the “self-splicing fitness (ln)” value (30 °C) was -3.17 ± 0.11 and the “self-splicing fitness (ln)” value (37 °C) was -2.23 ± 0.14.

In the case of CCCGAGCAAUAUUACGCGCA, the “self-splicing fitness (ln)” value (30 °C) is reported as -3.47 ± 0.34 and the “self-splicing fitness (ln)” value (37 °C) is reported as -1.28 ± 0.3.

With GGUCAGCAAUAUUACGAGUU the “self-splicing fitness (ln)” value (30 °C) was -1.38 ± 0.068 and the “self-splicing fitness (ln)” value (37 °C) was -0.17 ± 0.071.

For CUUUAGCAAUAUUACGAUUG, the “self-splicing fitness (ln)” value (30 °C) was -0.504 ± 0.12 and the “self-splicing fitness (ln)” value (37 °C) was 0.118 ± 0.17.

In the case of UCCCAGCAAUAUUACGGGGG, the “self-splicing fitness (ln)” value (30 °C) is reported as -4 ± 0.18 and the “self-splicing fitness (ln)” value (37 °C) is reported as -3.66 ± 0.33.

For UUACAGCAAUAUUACGAUCC, the “self-splicing fitness (ln)” value (30 °C) was -3.16 ± 0.13 and the “self-splicing fitness (ln)” value (37 °C) was -2.28 ± 0.16.

With AGCAAGCAAUAUUACGGUAC the “self-splicing fitness (ln)” value (30 °C) was -4.18 ± 0.2 and the “self-splicing fitness (ln)” value (37 °C) was -2.16 ± 0.16.

In the case of CUCAAGCAAUAUUACGCGCA, the “self-splicing fitness (ln)” value (30 °C) is reported as -2.95 ± 0.16 and the “self-splicing fitness (ln)” value (37 °C) is reported as -2.21 ± 0.15.

For UCGGAGCAAUAUUACGGGUU, the “self-splicing fitness (ln)” value (30 °C) was -2.86 ± 0.41.

With UUGCAGCAAUAUUACGCAGG the “self-splicing fitness (ln)” value (30 °C) was -3.72 ± 0.25 and the “self-splicing fitness (ln)” value (37 °C) was -2.68 ± 0.25.

In the case of CCCGAGCAAUAUUACGCCUC, the “self-splicing fitness (ln)” value (37 °C) is reported as -1.77 ± 0.34.

For ACCCAGCAAUAUUACGCAGU, the “self-splicing fitness (ln)” value (30 °C) was -0.609 ± 0.055 and the “self-splicing fitness (ln)” value (37 °C) was -0.106 ± 0.066.

For GCCCAGCAAUAUUACGAUCC, the “self-splicing fitness (ln)” value (30 °C) was -0.561 ± 0.13 and the “self-splicing fitness (ln)” value (37 °C) was -0.336 ± 0.19.

In the case of CAUCAGCAAUAUUACGCUGG, the “self-splicing fitness (ln)” value (30 °C) is reported as -3.62 ± 0.19 and the “self-splicing fitness (ln)” value (37 °C) is reported as -2.97 ± 0.2.

For CGCUAGCAAUAUUACGUUUG, the “self-splicing fitness (ln)” value (30 °C) was -2.31 ± 0.085 and the “self-splicing fitness (ln)” value (37 °C) was -0.505 ± 0.094.

With AUCAAGCAAUAUUACGUCUG the “self-splicing fitness (ln)” value (30 °C) was -1.16 ± 0.062 and the “self-splicing fitness (ln)” value (37 °C) was -0.603 ± 0.076.

For UCCAAGCAAUAUUACGAGAA, the “self-splicing fitness (ln)” value (30 °C) was -0.789 ± 0.16 and the “self-splicing fitness (ln)” value (37 °C) was -0.569 ± 0.17.

For GACAAGCAAUAUUACGAUCA, the “self-splicing fitness (ln)” value (30 °C) was 0.0763 ± 0.12 and the “self-splicing fitness (ln)” value (37 °C) was -0.0166 ± 0.15.
